Here are results for one substance from article PMC2141715.

In this assay the target is calreticulin (canine pancreas microsomes) (dog (endogenous in canine pancreas microsomes)) (UniProt P28490). The experiment in a line: co-IP.

The substance “HA glycosylation mutant Δ483 (natural protein)” gave a reduction in binding against wild-type HA of 40%.
